Data set [1] concerns the molecule itself. The data set is described as follows: pulsed dipolar ESR.
Data set [2] concerns the molecule itself. The data set is described as follows: SAXS.
Data set [3] concerns the molecule itself. The experiment in a line: crystal structure.

Residue numbers refer to the chain shown, from its start. Names and notes keep the numbering of the source.

B1: Aer2 1–402 S183C, MTSSL spin-labeled (domain or fragment)
chain: MGLFNAHAVAQQRADRIATLLQSFADGQLDTAVGEAPAPGYERLYDSLRALQRQLREQRAELQQVESLEAGLAEMSRQHEAGWIDQTIPAERLEGRAARIAKGVNELVAAHIAVKMKVVSVVTAYGQGNFEPLMDRLPGKKAQITEAIDGVRERLRGAAEATSAQLATAAYNARIKSALDNVCANVMIADNDLNIIYMNRTVSEMLGRAEADIRKQLPNFDAGRLMGANIDVFHKNPAHQRHLLANLTGVHKAELNLGGRRFSLDVVPVFNDANERLGSAVQWTDRTEEHRAEQEVSQLVQAAAAGDFSKRVEEAGKEGFFLRLAKDLNSLVDTADRGLRDVSRMLGALAQGDLTQRIEADYQGTFGQLKDFSNDTAQSLSRMLGQIREAADTINTAASEIA
modifications: MTSSL nitroxide spin label on C183
Turning to B1, the binding result in data set [1] is recorded as “binds”.

B2: Aer2 1–402 (domain or fragment)
chain: B1 chain with C183S
Turning to B2, the binding result in data set [2] is “binds”.

B3: Aer2 1–317 (domain or fragment)
chain: MGLFNAHAVAQQRADRIATLLQSFADGQLDTAVGEAPAPGYERLYDSLRALQRQLREQRAELQQVESLEAGLAEMSRQHEAGWIDQTIPAERLEGRAARIAKGVNELVAAHIAVKMKVVSVVTAYGQGNFEPLMDRLPGKKAQITEAIDGVRERLRGAAEATSAQLATAAYNARIKSALDNVSANVMIADNDLNIIYMNRTVSEMLGRAEADIRKQLPNFDAGRLMGANIDVFHKNPAHQRHLLANLTGVHKAELNLGGRRFSLDVVPVFNDANERLGSAVQWTDRTEEHRAEQEVSQLVQAAAAGDFSKRVEEAGK
B3: the binding result in data set [2] is “binds”.

B4: Aer2 173–289 K176A E275A (domain or fragment)
chain: ARIASALDNVSANVMIADNDLNIIYMNRTVSEMLGRAEADIRKQLPNFDAGRLMGANIDVFHKNPAHQRHLLANLTGVHKAELNLGGRRFSLDVVPVFNDANARLGSAVQWTDRTEE
As for B4, the binding result in data set [3] is “binds”.

The record behind these values is article PMC3577987 (Journal of molecular biology, 2012).
